# Changes are numbered by the printed parent chain.
# T1: CD300a antigen (12449-H08H, Sino Biological) (UniProt Q9UGN4 18-180)
# T1 construct: Bought recombinant antigen
# T1 sequence (looked up): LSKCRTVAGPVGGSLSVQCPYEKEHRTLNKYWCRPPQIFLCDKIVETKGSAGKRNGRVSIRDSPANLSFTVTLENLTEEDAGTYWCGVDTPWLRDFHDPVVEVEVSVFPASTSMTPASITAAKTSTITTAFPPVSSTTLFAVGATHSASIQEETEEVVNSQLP
# T2: mouse CD300c antigen (mouse)
# T2 sequence (A2A7V7 whole entry, looked up): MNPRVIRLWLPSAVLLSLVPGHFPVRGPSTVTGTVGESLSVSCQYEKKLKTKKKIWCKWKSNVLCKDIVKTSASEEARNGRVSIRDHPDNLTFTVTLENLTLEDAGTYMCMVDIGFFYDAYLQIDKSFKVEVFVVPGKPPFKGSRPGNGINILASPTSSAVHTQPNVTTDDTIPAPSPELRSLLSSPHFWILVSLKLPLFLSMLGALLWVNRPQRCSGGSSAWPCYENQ
# T3: CD300c antigen (11832-H08H, Sino Biological) (UniProt Q08708 21-183)
# T3 construct: Bought recombinant antigen coated on ELISA plates; the same entry is used for it
# T3 sequence (looked up): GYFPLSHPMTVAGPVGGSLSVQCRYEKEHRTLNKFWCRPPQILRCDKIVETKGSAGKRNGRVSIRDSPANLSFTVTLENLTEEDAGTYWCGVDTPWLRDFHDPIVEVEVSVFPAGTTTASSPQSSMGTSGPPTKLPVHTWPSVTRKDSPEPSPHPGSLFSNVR
# B1: anti-CD300c monoclonal antibody CL7 (antibody, V domains shown)
# VH: EVQLLESGGGLVQPGGSLRLSCAASGFTFSRYAMSWVRQAPGKGLEWVSAISGSGGSTYYADSVKGRFTISRDNSKNTLYLQMNSLRAEDTAVYYCARSSQGIFDIWGQGTLVTVSS
# VL: QSVLTQPPSASGTPGQRVTISCSGNNIGTRRVHWYQQLPDTAPKLLIYSKNNRPSGVPDRFSGSKSGTSASLAISGLRSEDEADYYCAAWDDSLSGPVFGGGTKLTVL
# notes: expressed as heavy and light chains in 293T cells, protein A purified
# B2: anti-CD300c monoclonal antibody SL18 (antibody, V domains shown)
# VH: RVQLLESGGGLVQPGGSLRLSCAASGFTFSDYHMHWVRQAPGKGLEWVSTISSSGGYTYYAESVKSRFTISRDNSKNTLYLQMNSLRAEDTAVYYCARSIRLPLDYWGQGTLVTVSS
# VL: QSVLTQPPSASGTPGQRVTISCSGNNIGSKGVHWYQQLPGTAPKLLIYEDSKRPSGVRDRFSGSKSGTSASLAISGLRSEDEADYYCQSYDSTKGVVFGGGTKLTVL
# notes: as for B1
# B3: anti-CD300c monoclonal antibody CL10 (antibody, V domains shown)
# VH: EVQLLESGGGLVQPGGSLRLSCAASGFTFSSYGMHWVRQAPGKGLEWVSAISGSGGSTYYADSVKGRFTISRDNSKNTLYLQMNSLRAEDTAVYYCASGYGLMDVWGQGTLVTVSS
# VL: QSVLTQPPSASGTPGQRVTISCTRSSGIIASNYVQWYQQLPGTAPKLLIYRNNQRPSGVPDRFSGSKSGTSASLAISGLRSEDEADYYCSSYAGNNNLVFGGGTKLTVL
# notes: as for B1
# B4: anti-CD300c monoclonal antibody SK17 (antibody, V domains shown)
# VH: EVQLLESGGGLVQPGGSLRLSCAASGFTFSSYYWSWVRQAPGKGLEWVSTITGSGGSTDYANSVKGRFTISRDNSKNTLYLQMNSLRAEDTAVYYCATGGGIFDYWGQGTLVTVSS
# VL: EIVLTQSPGTLSLSPGERATLSCQASQTISNYLNWYQQKPGQAPRLLIYDASNRATGIPDRFSGSGSGTDFTLTISRLEPEDFAVYYCQQYNSYPPSFGQGTKVEIK
# notes: as for B1
# B5: anti-CD300c monoclonal antibody SK14 (antibody, V domains shown)
# VH: EVQLLESGGGLVQPGGSLRLSCAASGFTFSNFAIAWVRQAPGKGLEWVSAISGRGTSTYYADSVKGRFTISRDNSKNTLYLQMNSLRAEDTAVYYCARGVSGFDSWGQGTLVTVSS
# VL: EIVLTQSPGTLSLSPGERATLSCRASQSISSHLAWYQQKPGQAPRLLIYDTSNRATGIPDRFSGSGSGTDFTLTISRLEPEDFAVYYCQQSYSTPFTFGQGTKVEIK
# notes: as for B1
# B6: anti-CD300c monoclonal antibody SK12 (antibody, V domains shown)
# VH: RVQLLESGGGLVQPGGSLRLSCAASGFTFSSYAMHWVRQAPGKGLEWVSAISGSGGDTYHADSVKGRFTISRDNSKNTLYLQMNSLRAEDTAVYYCTRGLSGFDYWGQGTLVTVSS
# VL: EIVLTQSPGTLSLSPGERATLSCRASQSISSYLNWYQQKPGQAPRLLIYDASNRAPGIPDRFSGSGSGTDFTLTISRLEPEDFAVYYCQQSYSIPITFGQGTKVEIKF
# notes: as for B1
# B7: anti-CD300c monoclonal antibody CK1 (antibody, V domains shown)
# VH: EVQLLESGGGLVQPGGSLRLSCAASGFTFSRYAMTWVRQAPGKGLEWVSSMSGTGGTTYYADSVKGRFTISRDNSKNTLYLQMNSLRAEDTAVYYCARGAYGFDHWGQGTLVTVSS
# VL: EIVLTQSPGTLSLSPGERATLSCRASQSIGNYLNWYQQKPGQAPRLLIYDASNLETGIPDRFSGSGSGTDFTLTISRLEPEDFAVYYCQQSSAIPYTFGQGTKVEIK
# notes: Selected as scFv phage clone (kappa library); expressed from separate heavy and light chain vectors in 293T cells, purified on protein A
# B8: anti-CD300c monoclonal antibody CL9 (antibody, V domains shown)
# VH: B1 VH with R31S, A33Y, M34W, S99I, S100D, Q101V, G102Y, I103G
# VL: QSVLTQPPSASGTPGQRVTISCSGSTSNIGTNYVYWYQQLPGTAPKLLIYDNNNRPSGVPDRFSGSKSGTSASLAISGLRSEDEADYYCQTWDSSTDVVFGGGTKLTVL
# notes: as for B1
# B9: anti-CD300c monoclonal antibody CL4 (antibody, V domains shown)
# VH: RVQLLESGGGLVQPGGSLRLSCAASGFTFGSNYMSWVRQAPGKGLEWVSTISGSGTSTYYADSLKGRFTISRDNSKNTLYLQMNSLRAEDTAVYYCARGMWGMDVWGQGTLVTVSS
# VL: QSVLTQPPSASGTPGQRVTISCTGKHRHTVNWYQLLPGTAPKLLIYLDSERPSGVPDRFSGSKSGTSASLAISGLRSEDEADYYCQSYDSSSVVFGGGTKLTVL
# notes: as for B1
# B10: anti-CD300c monoclonal antibody SK11 (antibody, V domains shown)
# VH: B6 VH with S31T, A33G, D57S, H60Y, T97A, F103L
# VL: B5 VL with A25S, S28G, S30T, S31N, H32Y, T51A, F96L
# notes: as for B1
# B11: anti-CD300c monoclonal antibody CK2 (antibody, V domains shown)
# VH: B3 VH with G56T, T58I, S98R, Y100G, G101T, L102A, M103F, V105Y
# VL: B5 VL with S28R, I29S, S30D, S31N, H32Y, T51A, I106T
# notes: as for B1
# B12: anti-CD300c monoclonal antibody SK13 (antibody, V domains shown)
# VH: RVQLLESGGGLVQPGGSLRLSCAASGFTFSDYAMSWVRQAPGKGLEWVSSISSSSSYIYYTDSVKGRFTISRDNSKNTLYLQMNSLRAEDTAVYYCARGGYGFDYWGQGTLVTVSS
# VL: EIVLTQSPGTLSLSPGERATLSCRASQSISSYLNWYQQKPGQAPRLLIYSASSRPQGIPDRFSGSGSGTDFTLTISRLEPEDFAVYYCQQYDDLPFTFGQGTKVEIK
# notes: as for B1
# B13: anti-CD300c monoclonal antibody CL5 (antibody, V domains shown)
# VH: RVQLLESGGGLVQPGGSLRLSCAASGFTFSSYAMHWVRQAPGKGLEWVSSISGGGYGTYYADSVKGRFTISRDNSKNTLYLQMNSLRAEDTAVYYCARSTVWAFDIWGQGTLVTVSS
# VL: QSVLTQPPSASGTPGQRVTISCSGNNIGSKSVHWYQQLPGTAPKLLIYDVSKRPSERPDRFSGSKSGTSASLAISDLRSEDEADYYCQSFDSSGTWIFGGGTKLTVL
# notes: as for B1
# B14: anti-CD300c monoclonal antibody CL6 (antibody, V domains shown)
# VH: EVQLLESGGGLVQPGGSLRLSCAASGFTFSSYGMHWVRQAPGKGLEWVSAISGSGGSTYYADSVKGRFTISRDNSKNTLYLQMNSLRAEDTAVYYCAVSGAGRGFFDYWGQGTLVTVSS
# VL: QSVLTQPPSASGTPGQRVTISCSGSSSNIGSNYVYWYQQLPGTAPKLLIYEDNKRPSGVPDRFSGSKSGTSASLAISGLRSEDEADYYCSSYTSSSTVIFGGGTKLTVL
# notes: as for B1
# Target: T1, CD300a antigen (12449-H08H, Sino …)
# Assay: binding ELISA, antigen coated on plate
row,Binder,binding result
1,B1,no binding

# Target: T2, mouse CD300c antigen
# Assay: cell-based or functional assay
row,Binder,"cancer cell proliferation inhibitory effect, CT26 mouse colorectal cancer cell line, CCK-8, 10 ug/mL antibody, 5 days [%]"
1,B2,38
2,B1,66
3,B3,15

# Target: T3, CD300c antigen (11832-H08H, Sino …)
# Assay: binding ELISA, CD300c antigen coated
row,Binder,EC50 [µg/mL]
1,B4,≤ 0.2
2,B5,≤ 0.2
3,B2,≤ 0.2
4,B6,≤ 0.2
5,B7,≤ 0.2
6,B1,≤ 0.2
7,B8,≤ 0.2
8,B9,≤ 0.2
9,B3,≤ 0.2
10,B10,≤ 0.2
11,B11,≤ 0.2
12,B12,≤ 0.2
13,B13,≤ 0.2
14,B14,≤ 0.2

# Reference: patent EP4349858A1 (CentricsBio, Inc., dated 2024)
